Reference: paper PMC2629732

Tests used:
Assay in all cases: EMSA
TAF3;TRF3 = target: T1, TAF3;TRF3 (mouse?;mouse?, UniProt Q5HZG4;Q6SJ95 1-932;1-350, |)
T1 sequence 1: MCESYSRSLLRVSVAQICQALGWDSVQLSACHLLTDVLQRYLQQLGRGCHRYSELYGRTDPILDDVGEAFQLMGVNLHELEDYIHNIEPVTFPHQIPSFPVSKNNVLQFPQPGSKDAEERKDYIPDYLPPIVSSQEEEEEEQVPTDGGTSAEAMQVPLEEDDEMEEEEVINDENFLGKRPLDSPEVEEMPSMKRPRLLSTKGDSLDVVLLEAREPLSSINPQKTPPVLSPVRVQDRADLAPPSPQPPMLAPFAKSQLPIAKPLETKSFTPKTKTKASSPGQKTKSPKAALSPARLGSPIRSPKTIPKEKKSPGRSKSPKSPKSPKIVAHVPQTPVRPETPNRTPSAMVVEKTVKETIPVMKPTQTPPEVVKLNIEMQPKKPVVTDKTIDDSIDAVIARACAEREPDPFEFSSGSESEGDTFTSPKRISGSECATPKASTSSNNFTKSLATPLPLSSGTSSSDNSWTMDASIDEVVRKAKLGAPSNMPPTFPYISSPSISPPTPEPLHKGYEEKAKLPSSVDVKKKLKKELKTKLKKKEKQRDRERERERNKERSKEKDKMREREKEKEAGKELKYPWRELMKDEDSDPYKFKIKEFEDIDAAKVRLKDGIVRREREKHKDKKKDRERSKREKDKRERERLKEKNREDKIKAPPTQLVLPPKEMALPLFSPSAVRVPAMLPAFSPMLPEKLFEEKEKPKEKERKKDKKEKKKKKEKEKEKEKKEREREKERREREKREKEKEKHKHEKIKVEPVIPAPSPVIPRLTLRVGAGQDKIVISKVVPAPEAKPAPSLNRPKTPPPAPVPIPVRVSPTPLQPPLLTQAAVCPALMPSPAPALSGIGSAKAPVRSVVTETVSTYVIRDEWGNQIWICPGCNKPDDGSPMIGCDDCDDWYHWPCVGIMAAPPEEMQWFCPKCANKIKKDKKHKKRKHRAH
T1 sequence 2: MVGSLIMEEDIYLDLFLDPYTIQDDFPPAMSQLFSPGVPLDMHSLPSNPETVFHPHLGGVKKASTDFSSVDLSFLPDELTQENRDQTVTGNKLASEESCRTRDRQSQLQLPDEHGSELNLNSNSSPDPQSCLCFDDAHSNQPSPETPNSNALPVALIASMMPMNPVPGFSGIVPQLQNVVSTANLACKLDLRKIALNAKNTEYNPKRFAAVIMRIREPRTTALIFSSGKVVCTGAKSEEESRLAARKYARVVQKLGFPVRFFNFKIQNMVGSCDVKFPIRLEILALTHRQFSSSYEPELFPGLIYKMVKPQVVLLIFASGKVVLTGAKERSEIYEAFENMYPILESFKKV

TRF3 = target: T2, TRF3 (UniProt Q6SJ95 1-350)
T2 sequence: T1 sequence 2

TAF3 = target: T3, TAF3 (UniProt Q5HZG4 1-932)
T3 sequence: T1 sequence 1

B1: Myogenin TATA probe / TATA competitor (dsDNA)
DNA 1: GAGGGTTTAAATGGCACCCAG
DNA 2: CTGGGTGCCATTTAAACCCTC
B1: binds (TAF3;TRF3); binds (TRF3); no binding (TAF3).
